The text below walks through data of patent US20170157250A1.

Experiment [1] deals with human AXL (full length, on cells) (human (Homo sapiens)) (UniProt P30530). In words: flow cytometry, A431 cells pre-incubated with Gas6 (competitor); mean (s.d.).
The target is the same in experiment [2]. Kind of experiment: flow cytometry, A431 cells pre-incubated with 10 µg/mL Gas6 (competitor); mean (s.d.); less accurate due to low binding.
For experiment [3] the target is unchanged. Kind of experiment: flow cytometry, A431 cells, without Gas6; mean (s.d.).
Experiment [4] shares this target. Kind of experiment: flow cytometry, A431 cells pre-incubated with 10 µg/mL Gas6 (competitor).
For experiment [5] the target is unchanged. Kind of experiment: flow cytometry, A431 cells pre-incubated with Gas6 (competitor); mean (s.d.); less accurate due to low binding.
Experiment [6] has the same target. In words: flow cytometry, A431 cells pre-incubated with 10 µg/mL Gas6 (competitor); mean (s.d.).

human AXL (full length, on cells) (human (Homo sapiens)), sequence (P30530 26-894 limits assumed): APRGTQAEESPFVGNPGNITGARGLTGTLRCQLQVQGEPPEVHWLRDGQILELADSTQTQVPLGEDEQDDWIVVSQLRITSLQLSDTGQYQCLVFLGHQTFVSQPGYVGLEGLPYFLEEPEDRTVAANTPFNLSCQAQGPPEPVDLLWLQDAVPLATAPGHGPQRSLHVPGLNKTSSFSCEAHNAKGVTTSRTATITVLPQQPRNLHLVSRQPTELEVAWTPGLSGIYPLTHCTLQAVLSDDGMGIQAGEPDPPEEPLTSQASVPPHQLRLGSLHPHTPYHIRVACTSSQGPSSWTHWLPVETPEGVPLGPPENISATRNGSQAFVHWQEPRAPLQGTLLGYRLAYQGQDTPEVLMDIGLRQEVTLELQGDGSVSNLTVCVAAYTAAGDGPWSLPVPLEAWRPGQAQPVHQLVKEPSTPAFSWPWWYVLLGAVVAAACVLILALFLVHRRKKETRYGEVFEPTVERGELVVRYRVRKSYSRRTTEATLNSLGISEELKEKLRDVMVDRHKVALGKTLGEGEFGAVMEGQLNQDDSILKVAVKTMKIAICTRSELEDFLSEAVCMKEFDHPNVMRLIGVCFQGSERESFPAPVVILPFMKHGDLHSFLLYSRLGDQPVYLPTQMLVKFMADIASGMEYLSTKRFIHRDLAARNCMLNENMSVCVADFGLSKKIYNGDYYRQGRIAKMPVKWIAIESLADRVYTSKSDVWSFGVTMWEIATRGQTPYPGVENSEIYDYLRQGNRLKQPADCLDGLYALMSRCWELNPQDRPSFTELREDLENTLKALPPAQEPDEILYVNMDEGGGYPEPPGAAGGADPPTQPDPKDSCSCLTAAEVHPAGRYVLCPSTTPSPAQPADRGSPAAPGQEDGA

B1: YW327.6S2 (antibody, from another filing, V domains shown)
VH: EVQLVESGGGLVQPGGSLRLSCAASGFSLSGSWIHWVRQAPGKGLEWVGWINPYRGYAYYADSVKGRFTISADTSKNTAYLQMNSLRAEDTAVYYCAREYSGWGGSSVGYAMDYWGQGTLVTVSS
VL: DIQMTQSPSSLSASVGDRVTITCRASQDVSTAVAWYQQKPGKAPKLLIYSASFLYSGVPSRFSGSGSGTDFTLTISSLQPEDFATYYCQQSYTTPPTFGQGTKVEIK
B1: the maximal binding in presence of Gas6 (% of binding in absence of Gas6) in experiment [1] and in experiment [6] was 41% throughout. Also, the EC50 in experiment [2] was 1.9 µg/mL; in experiment [3], 0.09 µg/mL; in experiment [5] it was 1.9 µg/mL. The same molecule registered a fold change of EC50 with Gas6 pre-incubation against without Gas6 in experiment [4] of 21 fold. In addition, the maximal binding in presence of Gas6 (% of binding without Gas6) in experiment [4] was found to be 19%.
